These results are taken from PMC3384344 (Nucleic Acids Research, 2012).

Where a chain is given by its changes, count along the chain named. Names may count otherwise. Where two headings read alike, the source gives them in different places.

Broadly, the Kd is the constant that tells how readily two partners part at equilibrium.

For data set [1], the target named is DNA polymerase III α subunit, wild-type full-length (E. coli) (UniProt P10443). Briefly: other fluorescence titration.
In data set [2] the target is T1, DNA polymerase III α subunit truncation α1–280 (E. coli, UniProt P10443 1-280). Nature of the data set: other fluorescence titration.
The target of data set [3] is DNA polymerase III α subunit truncation α917–1160 (E. coli, UniProt P10443 917-1160). Nature of the data set: other fluorescence titration.
The target in data set [4] is T2, DNA polymerase III α subunit, wild-type full-length (E. coli, UniProt P10443 1-1160). Nature of the data set: other fluorescence titration.
Data set [5] has as its target DNA polymerase III α subunit truncation α1–975 (E. coli, UniProt P10443 1-975). Briefly: other fluorescence titration.
Data set [6] has as its target DNA polymerase III α subunit truncation α1–956 (E. coli, UniProt P10443 1-956). Briefly: other fluorescence titration.
In data set [7] the target is T2, DNA polymerase III α subunit, wild-type …. Nature of the data set: other fluorescence titration. This is another data set of the same source.
For data set [8], the target named is T1, DNA polymerase III α subunit truncation …. Nature of the data set: cell-based or functional assay.
The data set “cross-linking” deals with the molecule itself. Briefly: cross-linking.

T2 sequence (P10443 whole entry, the tested form may be a part): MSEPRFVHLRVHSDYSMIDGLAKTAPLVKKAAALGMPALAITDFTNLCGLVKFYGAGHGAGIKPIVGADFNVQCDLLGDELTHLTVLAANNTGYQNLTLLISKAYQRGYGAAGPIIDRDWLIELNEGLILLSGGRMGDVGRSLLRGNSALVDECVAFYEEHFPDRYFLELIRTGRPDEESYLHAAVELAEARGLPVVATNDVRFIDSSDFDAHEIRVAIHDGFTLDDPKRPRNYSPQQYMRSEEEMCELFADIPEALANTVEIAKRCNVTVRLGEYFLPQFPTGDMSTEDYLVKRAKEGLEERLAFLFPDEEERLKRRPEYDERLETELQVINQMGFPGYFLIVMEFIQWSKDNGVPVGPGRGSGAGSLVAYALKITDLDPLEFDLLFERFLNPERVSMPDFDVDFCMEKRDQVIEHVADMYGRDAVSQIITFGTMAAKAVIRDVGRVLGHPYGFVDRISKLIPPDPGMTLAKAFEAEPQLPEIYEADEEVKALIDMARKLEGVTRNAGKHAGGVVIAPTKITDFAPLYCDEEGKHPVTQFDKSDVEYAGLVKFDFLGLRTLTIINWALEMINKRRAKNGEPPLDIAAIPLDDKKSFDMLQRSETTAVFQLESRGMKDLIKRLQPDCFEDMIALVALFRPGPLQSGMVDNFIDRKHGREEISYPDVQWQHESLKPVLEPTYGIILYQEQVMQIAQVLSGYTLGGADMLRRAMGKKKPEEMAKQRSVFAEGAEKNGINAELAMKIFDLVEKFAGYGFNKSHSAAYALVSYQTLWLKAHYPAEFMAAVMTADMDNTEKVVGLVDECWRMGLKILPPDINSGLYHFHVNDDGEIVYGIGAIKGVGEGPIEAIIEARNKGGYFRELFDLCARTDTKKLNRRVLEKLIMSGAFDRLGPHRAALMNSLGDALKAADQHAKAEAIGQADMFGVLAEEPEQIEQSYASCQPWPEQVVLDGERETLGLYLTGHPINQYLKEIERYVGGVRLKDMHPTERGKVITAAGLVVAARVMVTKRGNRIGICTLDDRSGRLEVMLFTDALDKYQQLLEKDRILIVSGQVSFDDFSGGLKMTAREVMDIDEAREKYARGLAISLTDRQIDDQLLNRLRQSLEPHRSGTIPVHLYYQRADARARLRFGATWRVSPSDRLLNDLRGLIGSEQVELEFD
Chain of DNA polymerase III α subunit truncation α917–1160 (P10443 917-1160): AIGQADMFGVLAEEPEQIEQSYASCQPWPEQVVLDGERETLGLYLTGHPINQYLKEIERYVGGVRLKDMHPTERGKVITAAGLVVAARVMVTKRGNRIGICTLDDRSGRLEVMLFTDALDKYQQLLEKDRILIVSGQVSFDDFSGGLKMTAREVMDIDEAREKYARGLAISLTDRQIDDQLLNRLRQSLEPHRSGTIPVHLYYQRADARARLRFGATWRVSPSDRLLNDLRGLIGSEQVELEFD
T1 sequence (P10443 1-280): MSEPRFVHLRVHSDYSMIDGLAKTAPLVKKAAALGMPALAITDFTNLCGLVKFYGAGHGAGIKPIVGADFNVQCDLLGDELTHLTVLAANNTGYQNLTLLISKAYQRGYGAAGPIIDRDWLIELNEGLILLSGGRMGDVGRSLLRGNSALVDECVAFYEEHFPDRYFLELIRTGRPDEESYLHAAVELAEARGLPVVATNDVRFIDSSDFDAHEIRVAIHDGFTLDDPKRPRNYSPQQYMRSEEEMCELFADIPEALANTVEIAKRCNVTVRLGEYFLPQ
Chain of DNA polymerase III α subunit truncation α1–975 (P10443 1-975): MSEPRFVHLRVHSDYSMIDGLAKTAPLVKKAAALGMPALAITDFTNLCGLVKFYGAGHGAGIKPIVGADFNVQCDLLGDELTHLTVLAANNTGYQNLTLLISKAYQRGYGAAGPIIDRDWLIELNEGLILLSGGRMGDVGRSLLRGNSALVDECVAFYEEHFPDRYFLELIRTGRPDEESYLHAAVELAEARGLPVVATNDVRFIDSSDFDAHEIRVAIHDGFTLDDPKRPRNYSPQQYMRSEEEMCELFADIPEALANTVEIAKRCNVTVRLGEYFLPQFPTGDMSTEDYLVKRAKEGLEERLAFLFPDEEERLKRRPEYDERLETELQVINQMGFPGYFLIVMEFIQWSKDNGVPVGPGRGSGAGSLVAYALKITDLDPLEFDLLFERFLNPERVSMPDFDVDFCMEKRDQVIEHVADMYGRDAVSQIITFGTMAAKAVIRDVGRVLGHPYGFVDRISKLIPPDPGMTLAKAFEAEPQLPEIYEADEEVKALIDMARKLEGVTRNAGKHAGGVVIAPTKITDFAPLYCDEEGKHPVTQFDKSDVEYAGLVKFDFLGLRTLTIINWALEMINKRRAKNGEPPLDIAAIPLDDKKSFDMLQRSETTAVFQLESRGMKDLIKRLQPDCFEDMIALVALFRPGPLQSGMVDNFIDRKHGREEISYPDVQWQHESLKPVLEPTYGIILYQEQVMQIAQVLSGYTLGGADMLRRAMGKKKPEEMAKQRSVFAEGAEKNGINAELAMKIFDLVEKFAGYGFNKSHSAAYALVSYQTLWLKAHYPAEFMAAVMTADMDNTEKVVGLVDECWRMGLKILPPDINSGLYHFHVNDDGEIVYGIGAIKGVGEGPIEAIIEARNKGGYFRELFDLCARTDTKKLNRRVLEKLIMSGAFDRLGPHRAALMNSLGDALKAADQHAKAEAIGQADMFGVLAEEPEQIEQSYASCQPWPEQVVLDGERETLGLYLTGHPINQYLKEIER
Chain of DNA polymerase III α subunit, wild-type full-length (E. coli) (P10443 whole entry, the tested form may be a part): as the sequence (P10443 whole entry, the tested form may be a part) above
Chain of DNA polymerase III α subunit truncation α1–956 (P10443 1-956): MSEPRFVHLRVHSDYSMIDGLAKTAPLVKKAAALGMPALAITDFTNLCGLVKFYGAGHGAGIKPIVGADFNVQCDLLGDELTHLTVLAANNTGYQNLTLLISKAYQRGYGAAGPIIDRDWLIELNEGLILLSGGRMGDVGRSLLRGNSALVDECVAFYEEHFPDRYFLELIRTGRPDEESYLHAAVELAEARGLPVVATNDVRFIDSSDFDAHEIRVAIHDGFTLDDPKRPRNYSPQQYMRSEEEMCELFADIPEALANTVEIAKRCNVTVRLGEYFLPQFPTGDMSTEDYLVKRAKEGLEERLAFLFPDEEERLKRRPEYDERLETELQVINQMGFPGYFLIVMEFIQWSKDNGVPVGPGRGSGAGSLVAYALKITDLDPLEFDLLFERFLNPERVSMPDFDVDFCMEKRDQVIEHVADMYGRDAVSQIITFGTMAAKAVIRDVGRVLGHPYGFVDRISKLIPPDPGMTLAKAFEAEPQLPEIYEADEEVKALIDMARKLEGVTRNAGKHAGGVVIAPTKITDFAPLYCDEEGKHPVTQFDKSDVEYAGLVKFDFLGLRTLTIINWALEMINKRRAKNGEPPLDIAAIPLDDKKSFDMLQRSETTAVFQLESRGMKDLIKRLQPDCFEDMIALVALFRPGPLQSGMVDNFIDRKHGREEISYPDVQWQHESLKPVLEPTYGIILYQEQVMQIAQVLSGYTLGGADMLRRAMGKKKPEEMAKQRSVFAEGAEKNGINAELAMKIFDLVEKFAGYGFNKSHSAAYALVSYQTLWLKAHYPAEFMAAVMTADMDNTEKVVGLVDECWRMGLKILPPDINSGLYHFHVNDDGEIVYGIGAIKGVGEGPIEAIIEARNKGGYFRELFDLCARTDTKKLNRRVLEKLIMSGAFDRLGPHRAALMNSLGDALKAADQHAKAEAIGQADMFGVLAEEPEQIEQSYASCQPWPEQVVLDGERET

As for “1:1 mixture of UmuD-S60A and UmuD′-S60A (from UniProt P0AG11) (complex)”, in data set [1], the Kd was found to be 4.6 µM. This lies in the single-digit micromolar range.

B1: UmuD′, cleaved form of UmuD (homodimer UmuD′2) (natural protein)
chain: GFPSPAADYVEQRIDLNQLLIQHPSATYFVKASGDSMIDGGISDGDLLIVDSAITASHGDIVIAAVDGEFTVKKLQLRPTVQLIPMNSAYSPITISSEDTLDVFGVVIHVVKAMR
Consider B1, for which the Kd worked out at 8.6 ± 1 µM in [2], 3.8 ± 0.9 µM in data set [3] and 10.9 ± 1.6 µM in data set [4].

B2: UmuD, wild-type full-length (homodimer UmuD2) (natural protein)
chain: MLFIKPADLREIVTFPLFSDLVQCGFPSPAADYVEQRIDLNQLLIQHPSATYFVKASGDSMIDGGISDGDLLIVDSAITASHGDIVIAAVDGEFTVKKLQLRPTVQLIPMNSAYSPITISSEDTLDVFGVVIHVVKAMR
Take B2: the Kd in data set [5] was determined as 3.1 ± 1 µM; in data set [6] it was 14.7 ± 1.9 µM; in data set [2], 7.3 ± 1.4 µM; in data set [3] it was 13.9 ± 5.1 µM; in [4], 1.1 ± 0.6 µM; in data set [7], 21.7 ± 11.7 µM. The “RecA/ssDNA-facilitated UmuD cleavage at 30°C with 0–40 µM α1–280” value in [8] is ~4 fold more α1–280 than wild-type α.

B3: UmuD3A (UmuD containing the triple mutation T14A, L17A and F18A) (natural protein)
chain: B2 chain with T14A, L17A, F18A
As to B3, the Kd in data set [2] worked out at 9.3 ± 3.2 µM; in data set [3], 3.4 ± 1 µM; in data set [4] it was 8.7 ± 1.5 µM.

B4: UmuD-S60A, non-cleavable full-length UmuD variant (natural protein)
chain: B2 chain with S60A
Regarding B4, the Kd amounted to 10.3 ± 4.3 µM in data set [2], 0.7 ± 0.3 µM in data set [3] and 10.6 ± 2.9 µM in data set [4]. Besides, in “cross-linking”, the binding result is recorded as “binds”.
